Sequences and labels used below:
B2: MAP7 MT-binding domain (MTBD), residues 59-170 (domain or fragment)
chain: PVLRVDDRQRLARERREEREKQLAAREIVWLEREERARQHYEKHLEERKKRLEEQRQKEERRRAAVEEKRRQRLEEDKERHEAVVRRTMERSQKPKQKHNRWSWGGSLHGSP

Ends that are not written are not given here.

For test [1], the target named is B2. Kind of test: fluorescence polarisation. On the technique in general: Polarisation of emitted light reports the rotation of a fluorescent probe.
Test [2] addresses Taxol-stabilized microtubules from lyophilized tubulin (Cytoskeleton, Inc.) (UniProt P02550 1-451; P02554 1-445). The test is described as follows: ITC. Background: In ITC the heat of successive injections is recorded.

The source of these data is doi:10.1101/2023.06.02.543398 (bioRxiv, 2023).

As usually defined, the Kd is a measure of binding affinity in units of concentration. A high value points to lower affinity.

Taxol-stabilized microtubules from lyophilized tubulin (Cytoskeleton, Inc.), sequence (P02550 whole entry, chain 1 of 2): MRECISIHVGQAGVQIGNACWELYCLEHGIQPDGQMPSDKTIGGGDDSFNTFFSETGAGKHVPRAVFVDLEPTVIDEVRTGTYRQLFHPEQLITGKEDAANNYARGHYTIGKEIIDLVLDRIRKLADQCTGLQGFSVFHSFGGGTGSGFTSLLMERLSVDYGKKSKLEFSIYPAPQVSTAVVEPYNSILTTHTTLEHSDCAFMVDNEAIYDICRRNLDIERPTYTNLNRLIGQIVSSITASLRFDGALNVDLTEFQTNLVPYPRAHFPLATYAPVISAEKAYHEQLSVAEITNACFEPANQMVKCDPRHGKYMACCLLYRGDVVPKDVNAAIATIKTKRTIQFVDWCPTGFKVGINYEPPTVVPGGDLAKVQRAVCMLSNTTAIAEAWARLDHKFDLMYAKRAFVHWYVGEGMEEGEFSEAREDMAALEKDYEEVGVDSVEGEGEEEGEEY
Taxol-stabilized microtubules from lyophilized tubulin (Cytoskeleton, Inc.), sequence (P02554 whole entry, chain 2 of 2): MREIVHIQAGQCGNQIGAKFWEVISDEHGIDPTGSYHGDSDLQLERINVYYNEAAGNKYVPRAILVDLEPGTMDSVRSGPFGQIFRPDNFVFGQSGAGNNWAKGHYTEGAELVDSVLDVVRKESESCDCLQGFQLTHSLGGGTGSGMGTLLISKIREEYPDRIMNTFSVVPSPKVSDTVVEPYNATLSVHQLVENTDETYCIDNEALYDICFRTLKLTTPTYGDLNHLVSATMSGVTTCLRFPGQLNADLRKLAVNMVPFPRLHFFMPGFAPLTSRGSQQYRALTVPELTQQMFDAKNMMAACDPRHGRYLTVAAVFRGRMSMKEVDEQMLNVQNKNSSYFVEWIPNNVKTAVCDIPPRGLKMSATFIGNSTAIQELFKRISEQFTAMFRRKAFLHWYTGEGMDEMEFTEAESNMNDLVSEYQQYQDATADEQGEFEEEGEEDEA

B1: NHS-fluorescein-labelled α-tubulin carboxy-terminal tail peptide (peptide)
peptide: SVEGEGEEEGEEY
modifications: also: NHS-fluorescein label, position not given here
On to B1, for which, in test [1], binding was characterised by a dissociation constant (Kd) of 91.3 ± 17.5 µM. Turning to B2, in test [2], the Kd is 940 nM and the “stoichiometry N” value is 0.51 ± 0.09 MAP7 MTBD to tubulin.
